Consider two molecules from PMC11341029 (PLOS Pathogens, 2024).

One assay deals with T1, SLC39A9 (Homo sapiens, UniProt Q9NUM3).
T1 chain: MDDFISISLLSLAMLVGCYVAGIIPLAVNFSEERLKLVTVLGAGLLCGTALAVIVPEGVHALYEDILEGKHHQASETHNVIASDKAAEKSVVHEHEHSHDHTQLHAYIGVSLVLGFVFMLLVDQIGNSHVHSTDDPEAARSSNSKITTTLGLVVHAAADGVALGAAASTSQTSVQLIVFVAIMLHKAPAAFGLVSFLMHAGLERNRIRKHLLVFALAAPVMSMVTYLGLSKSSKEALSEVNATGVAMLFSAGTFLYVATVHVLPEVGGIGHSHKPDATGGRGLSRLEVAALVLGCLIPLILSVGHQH
Briefly: SPR.

Another assay concerns the target T2, NPC1-10×His-Flag (human, UniProt O15118 23-1278).
T2 construct: also called purified NPC1-Flag; full-length NPC1 protein
T2 sequence (looked up): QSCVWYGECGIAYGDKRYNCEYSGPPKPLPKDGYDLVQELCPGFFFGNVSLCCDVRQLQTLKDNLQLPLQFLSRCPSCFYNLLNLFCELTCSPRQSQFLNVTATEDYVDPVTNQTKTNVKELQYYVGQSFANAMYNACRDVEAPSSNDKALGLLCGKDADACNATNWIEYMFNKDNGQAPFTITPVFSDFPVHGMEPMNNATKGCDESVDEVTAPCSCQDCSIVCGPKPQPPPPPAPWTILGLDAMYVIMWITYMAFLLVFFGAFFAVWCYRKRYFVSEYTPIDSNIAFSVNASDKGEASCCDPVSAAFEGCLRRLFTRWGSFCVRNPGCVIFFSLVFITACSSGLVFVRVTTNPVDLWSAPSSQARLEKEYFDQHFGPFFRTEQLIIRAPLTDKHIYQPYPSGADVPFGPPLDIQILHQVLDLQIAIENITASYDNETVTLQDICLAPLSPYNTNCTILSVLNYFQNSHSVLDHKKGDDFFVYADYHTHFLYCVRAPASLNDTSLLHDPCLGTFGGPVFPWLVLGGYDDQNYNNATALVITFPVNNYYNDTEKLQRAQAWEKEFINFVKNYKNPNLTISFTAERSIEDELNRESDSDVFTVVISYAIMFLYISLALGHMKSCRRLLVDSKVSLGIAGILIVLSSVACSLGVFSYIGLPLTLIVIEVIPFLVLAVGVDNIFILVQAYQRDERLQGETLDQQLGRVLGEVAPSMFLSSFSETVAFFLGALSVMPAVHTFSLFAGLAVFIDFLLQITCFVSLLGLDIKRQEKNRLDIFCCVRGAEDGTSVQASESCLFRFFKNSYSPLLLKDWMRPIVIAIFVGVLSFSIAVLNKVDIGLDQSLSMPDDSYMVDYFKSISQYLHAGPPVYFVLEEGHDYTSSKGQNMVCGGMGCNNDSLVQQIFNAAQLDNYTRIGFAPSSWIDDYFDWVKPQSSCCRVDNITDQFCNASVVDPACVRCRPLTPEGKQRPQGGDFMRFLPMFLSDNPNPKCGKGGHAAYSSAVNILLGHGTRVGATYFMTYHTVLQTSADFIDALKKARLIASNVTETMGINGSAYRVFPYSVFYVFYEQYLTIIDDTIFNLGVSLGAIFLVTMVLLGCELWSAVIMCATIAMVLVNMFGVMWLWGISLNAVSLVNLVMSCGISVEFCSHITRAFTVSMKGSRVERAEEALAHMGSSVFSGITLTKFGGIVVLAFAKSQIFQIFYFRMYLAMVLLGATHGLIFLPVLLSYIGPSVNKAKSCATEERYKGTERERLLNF
Briefly: SPR. The conditions noted are these: both partners purified.

B1: EBOV GP (protein)
chain: IPLGVIHNSTLQVSDVDKLVCRDKLSSTNQLRSVGLNLEGNGVATDVPSATKRWGFRSGVPPKVVNYEAGEWAENCYNLEIKKPDGSECLPAAPDGIRGFPRCRYVHKVSGTGPCAGDFAFHKEGAFFLYDRLASTVIYRGTTFAEGVVAFLILPQAKKDFFSSHPLREPVNATEDPSSGYYSTTIRYQATGFGTNETEYLFEVDNLTYVQLESRFTPQFLLQLNETIYTSGKRSNTTGKLIWKVNPEIDTTIGEWAFWETKKNLTRKIRSEELSFTVVSNGAKNISGQSPARTSSDPGTNTTTEDHKIMASENSSAMVQVHSQGREAAVSHLTTLATISTSPQSLTTKPGPDNSTHNTPVYKLDISEATQVEQHHRRTDNDSTASDTPSATTAAGPPKAENTNTSKSTDFLDPATTTSPQNHSETAGNNNTHHQDTGEESASSGKLGLITNTIAGVAGLITGGRRTRREAIVNAQPKCNPNLHYWTTQDEGAAIGLAWIPYFGPAAEGIYIEGLMHNQDGLICGLRQLANETTQALQLFLRATTELRTFSILNRKAIDFLLQRWGGTCHILGPDCCIEPHDWTKNITDKIDQIIHDFVDKTLPDQGDNDNWWTGWRQWIPAGIGVTGVIIAVIALFCICKFVF
Usually Kd stands for the equilibrium constant for the complex coming apart. In turn, B1 registered a dissociation constant Kd with SLC39A9 of 3000 nM.

B2: primed EBOV GP (GPcl) (domain or fragment)
chain 1: IPLGVIHNSTLQVSDVDKLVCRDKLSSTNQLRSVGLNLEGNGVATDVPSATKRWGFRSGVPPKVVNYEAGEWAENCYNLEIKKPDGSECLPAAPDGIRGFPRCRYVHKVSGTGPCAGDFAFHKEGAFFLYDRLASTVIYRGTTFAEGVVAFLILPQ
chain 2: EAIVNAQPKCNPNLHYWTTQDEGAAIGLAWIPYFGPAAEGIYIEGLMHNQDGLICGLRQLANETTQALQLFLRATTELRTFSILNRKAIDFLLQRWGGTCHILGPDCCIEPHDWTKNITDKIDQIIHDFVDKTLPDQGDNDNWWTGWRQ
In the assay with NPC1-10×His-Flag, B2 gave a Kd of 18.5 µM. That is a double-digit micromolar value.
